As usually defined, the IC50 is the concentration that inhibits the measured activity by half.

Here are results for 7 molecules from US20150374794A1 (Novo Nordisk, published 2015).

Numbered stars: 1 amine (or outer) side, 2 acyl side, 3 side chain; on linkers, the order of the positions; unused ones are H or OH. Square brackets hold non-standard residues; d marks the D form. Side chains are listed from the residue outwards. Ends that are not written are not given here. * marks the point of attachment. C18 diacid = O=C(O)CCCCCCCCCCCCCCCCC(=O)*; γGlu = O=C(O)[C@H](CCC(=O)[*:2])N[*:1]; AEEA = NCCOCCOCC(=O)O; Aib = CC(C)(N)C(=O)O

Test [1] has as its target T1, human GLP-1 receptor (human, UniProt P43220 24-463).
T1 construct: whole, on cells; the potency assay used whole cells (clone FCW467-12A/KZ10-1)
The test can be described thus: displacement of 125I-GLP-1(7-36)NH2, membranes with human GLP-1R, SPA. The procedure: The receptor binding of each compound to the human GLP-1 receptor was measured in a displacement binding assay. […] Each derivative was added in a series of concentrations to isolated membranes containing the human GLP-1 receptor and displacement of the labelled ligand was monitored. The receptor binding was reported as the concentration at which half of the labelled ligand was displaced from the receptor, the IC₅₀ value.

Test [2] concerns the target T2, human glucagon receptor (human, UniProt P47871 26-477).
T2 construct: whole, on cells; the potency assay used whole cells (clone pLJ6'-4-25); also called GlucR; hGCGR
The test can be described thus: displacement of 125I-glucagon, membranes with human glucagon receptor, SPA. The procedure:
The receptor binding of each compound to the human glucagon receptor was measured in a displacement binding assay. […] Each derivative was added in a series of concentrations to isolated membranes containing the human glucagon receptor and displacement of the labelled ligand is monitored. The receptor binding was reported as the concentration at which half of the labelled ligand is displaced from the receptor, the IC₅₀ value.
On the technique in general: In a radioligand displacement assay an active substance lowers the binding of a labelled ligand.

Test [3] addresses T1, human GLP-1 receptor. The test can be described thus: cell-based or functional assay.
Test [4] addresses T2, human glucagon receptor. The test can be described thus: cell-based or functional assay.

T2 sequence (P47871 26-477): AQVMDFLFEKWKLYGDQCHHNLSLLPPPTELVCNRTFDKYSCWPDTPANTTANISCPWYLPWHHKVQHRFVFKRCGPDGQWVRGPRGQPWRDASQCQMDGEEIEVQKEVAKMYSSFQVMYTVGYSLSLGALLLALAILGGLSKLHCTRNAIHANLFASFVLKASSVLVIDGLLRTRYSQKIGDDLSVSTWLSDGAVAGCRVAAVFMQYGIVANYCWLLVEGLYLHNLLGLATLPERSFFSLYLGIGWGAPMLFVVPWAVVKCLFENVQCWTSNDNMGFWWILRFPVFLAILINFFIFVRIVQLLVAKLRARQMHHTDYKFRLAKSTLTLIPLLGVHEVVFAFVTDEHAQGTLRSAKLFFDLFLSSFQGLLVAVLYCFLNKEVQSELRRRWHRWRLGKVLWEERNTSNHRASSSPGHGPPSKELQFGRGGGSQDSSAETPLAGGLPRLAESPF

For H[Aib]QGTFTSDLSKYLESKRARSFVQWLLK([γGlu-γGlu-Ser-Glu-Ser-γGlu-γGlu-C18 diacid])T-NH2, the IC50 with human GLP-1 receptor [1] came to 0.2 nM; with human glucagon receptor [2], 9.5 nM. Also, the “EC50 GLP-1R, CRE luciferase reporter gene assay in BHK cells” value (shortened to “EC50 GLP-1R”) with human GLP-1 receptor [3] amounted to 0.007 nM. In addition, the “EC50 GlucR, CRE luciferase reporter gene assay in BHK cells” value (shortened to “EC50 GlucR”) with human glucagon receptor [4] stood at 0.068 nM.

B1: N^ε29-[(4S)-4-carboxy-4-[[(4S)-4-carboxy-4-[[2-[2-[2-[[2-[2-[2-[[(4S)-4-carboxy-4-(17-carboxyheptadecanoylamino)butanoyl]amino]ethoxy]ethoxy]acetyl]amino]ethoxy … (peptide)
peptide: H[Aib]QGTFTSDLSKYLDSKAAQEFVQWLLNK([γGlu-γGlu-AEEA-AEEA-γGlu-C18 diacid])-NH2
modifications: N-terminus assumed
SMILES: CC(C)C[C@H](NC(=O)[C@H](CC(C)C)NC(=O)[C@H](Cc1c[nH]c2ccccc12)NC(=O)[C@H](CCC(N)=O)NC(=O)[C@@H](NC(=O)[C@H](Cc1ccccc1)NC(=O)[C@H](CCC(=O)O)NC(=O)[C@H](CCC(N)=O)NC(=O)[C@H](C)NC(=O)[C@H](C)NC(=O)[C@H](CCCCN)NC(=O)[C@H](CO)NC(=O)[C@H](CC(=O)O)NC(=O)[C@H](CC(C)C)NC(=O)[C@H](Cc1ccc(O)cc1)NC(=O)[C@H](CCCCN)NC(=O)[C@H](CO)NC(=O)[C@H](CC(C)C)NC(=O)[C@H](CC(=O)O)NC(=O)[C@H](CO)NC(=O)[C@@H](NC(=O)[C@H](Cc1ccccc1)NC(=O)[C@@H](NC(=O)CNC(=O)[C@H](CCC(N)=O)NC(=O)C(C)(C)NC(=O)[C@@H](N)Cc1c[nH]cn1)[C@@H](C)O)[C@@H](C)O)C(C)C)C(=O)N[C@@H](CC(N)=O)C(=O)N[C@@H](CCCCNC(=O)CC[C@H](NC(=O)CC[C@H](NC(=O)COCCOCCNC(=O)COCCOCCNC(=O)CC[C@H](NC(=O)CCCCCCCCCCCCCCCCC(=O)O)C(=O)O)C(=O)O)C(=O)O)C(N)=O
Consider B1, for which the IC50 with human GLP-1 receptor [1] is 1.1 nM; in the test with human glucagon receptor [2], 6.7 nM. In the test with human GLP-1 receptor [3], the “EC50 GLP-1R” value turned out to be 0.0296 nM. For the same molecule, the “EC50 GlucR” value with human glucagon receptor [4] amounted to 1.13 nM.

B2: N^ε29-[(4S)-4-carboxy-4-[[(4S)-4-carboxy-4-[[2-[2-[2-[[2-[2-[2-[[(4S)-4-carboxy-4-(17-carboxyheptadecanoylamino)butanoyl]amino]ethoxy]ethoxy]acetyl]amino]ethoxy … (peptide)
peptide: H[Aib]QGTFTSDLSKYLDARRARDFVQWLLSK([γGlu-γGlu-AEEA-AEEA-γGlu-C18 diacid])-NH2
modifications: N-terminus assumed
SMILES: CC(C)C[C@H](NC(=O)[C@H](Cc1ccc(O)cc1)NC(=O)[C@H](CCCCN)NC(=O)[C@H](CO)NC(=O)[C@H](CC(C)C)NC(=O)[C@H](CC(=O)O)NC(=O)[C@H](CO)NC(=O)[C@@H](NC(=O)[C@H](Cc1ccccc1)NC(=O)[C@@H](NC(=O)CNC(=O)[C@H](CCC(N)=O)NC(=O)C(C)(C)NC(=O)[C@@H](N)Cc1c[nH]cn1)[C@@H](C)O)[C@@H](C)O)C(=O)N[C@@H](CC(=O)O)C(=O)N[C@@H](C)C(=O)N[C@@H](CCCNC(=N)N)C(=O)N[C@@H](CCCNC(=N)N)C(=O)N[C@@H](C)C(=O)N[C@@H](CCCNC(=N)N)C(=O)N[C@@H](CC(=O)O)C(=O)N[C@@H](Cc1ccccc1)C(=O)N[C@H](C(=O)N[C@@H](CCC(N)=O)C(=O)N[C@@H](Cc1c[nH]c2ccccc12)C(=O)N[C@@H](CC(C)C)C(=O)N[C@@H](CC(C)C)C(=O)N[C@@H](CO)C(=O)N[C@@H](CCCCNC(=O)CC[C@H](NC(=O)CC[C@H](NC(=O)COCCOCCNC(=O)COCCOCCNC(=O)CC[C@H](NC(=O)CCCCCCCCCCCCCCCCC(=O)O)C(=O)O)C(=O)O)C(=O)O)C(N)=O)C(C)C
With B2, the IC50 with human GLP-1 receptor [1] was 0.6 nM; with human glucagon receptor [2], 10.4 nM. Besides, the “EC50 GLP-1R” value with human GLP-1 receptor [3] worked out at 0.005 nM. Also, the “EC50 GlucR” value in the test with human glucagon receptor [4] turned out to be 0.047 nM.

B3: N^ε29-[(4S)-4-carboxy-4-[[2-[2-[2-[[2-[2-[2-[[(4S)-4-carboxy-4-[[(4S)-4-carboxy-4-(17-carboxyheptadecanoylamino)butanoyl]amino]butanoyl]amino]ethoxy]ethoxy]acet … (peptide)
peptide: H[Aib]QGTFTSDLSKYLESRRAREFVQWLLNK([γGlu-AEEA-AEEA-γGlu-γGlu-C18 diacid])-NH2
modifications: N-terminus assumed
SMILES: CC(C)C[C@H](NC(=O)[C@H](CC(C)C)NC(=O)[C@H](Cc1c[nH]c2ccccc12)NC(=O)[C@H](CCC(N)=O)NC(=O)[C@@H](NC(=O)[C@H](Cc1ccccc1)NC(=O)[C@H](CCC(=O)O)NC(=O)[C@H](CCCNC(=N)N)NC(=O)[C@H](C)NC(=O)[C@H](CCCNC(=N)N)NC(=O)[C@H](CCCNC(=N)N)NC(=O)[C@H](CO)NC(=O)[C@H](CCC(=O)O)NC(=O)[C@H](CC(C)C)NC(=O)[C@H](Cc1ccc(O)cc1)NC(=O)[C@H](CCCCN)NC(=O)[C@H](CO)NC(=O)[C@H](CC(C)C)NC(=O)[C@H](CC(=O)O)NC(=O)[C@H](CO)NC(=O)[C@@H](NC(=O)[C@H](Cc1ccccc1)NC(=O)[C@@H](NC(=O)CNC(=O)[C@H](CCC(N)=O)NC(=O)C(C)(C)NC(=O)[C@@H](N)Cc1c[nH]cn1)[C@@H](C)O)[C@@H](C)O)C(C)C)C(=O)N[C@@H](CC(N)=O)C(=O)N[C@@H](CCCCNC(=O)CC[C@H](NC(=O)COCCOCCNC(=O)COCCOCCNC(=O)CC[C@H](NC(=O)CC[C@H](NC(=O)CCCCCCCCCCCCCCCCC(=O)O)C(=O)O)C(=O)O)C(=O)O)C(N)=O
In the case of B3, the half-inhibitory concentration (IC50) with human GLP-1 receptor [1] is 0.3 nM; with human glucagon receptor [2] it was 51 nM. In the test with human GLP-1 receptor [3], the “EC50 GLP-1R” value was 0.0027 nM. Moreover, in the test with human glucagon receptor [4], the “EC50 GlucR” value was determined as 0.24 nM.

B4: N^ε28-[(4S)-4-carboxy-4-[[(4S)-4-carboxy-4-[[(4S)-4-carboxy-4-(17-carboxyheptadecanoylamino)butanoyl]amino]butanoyl]amino]butanoyl]-[Aib2,Leu10,Arg12,Ala16,Arg2 … (peptide)
peptide: H[Aib]QGTFTSDLSRYLDARRARDFVQWLLK([γGlu-γGlu-γGlu-C18 diacid])T-NH2
modifications: N-terminus assumed
SMILES: CC(C)C[C@H](NC(=O)[C@H](Cc1ccc(O)cc1)NC(=O)[C@H](CCCNC(=N)N)NC(=O)[C@H](CO)NC(=O)[C@H](CC(C)C)NC(=O)[C@H](CC(=O)O)NC(=O)[C@H](CO)NC(=O)[C@@H](NC(=O)[C@H](Cc1ccccc1)NC(=O)[C@@H](NC(=O)CNC(=O)[C@H](CCC(N)=O)NC(=O)C(C)(C)NC(=O)[C@@H](N)Cc1c[nH]cn1)[C@@H](C)O)[C@@H](C)O)C(=O)N[C@@H](CC(=O)O)C(=O)N[C@@H](C)C(=O)N[C@@H](CCCNC(=N)N)C(=O)N[C@@H](CCCNC(=N)N)C(=O)N[C@@H](C)C(=O)N[C@@H](CCCNC(=N)N)C(=O)N[C@@H](CC(=O)O)C(=O)N[C@@H](Cc1ccccc1)C(=O)N[C@H](C(=O)N[C@@H](CCC(N)=O)C(=O)N[C@@H](Cc1c[nH]c2ccccc12)C(=O)N[C@@H](CC(C)C)C(=O)N[C@@H](CC(C)C)C(=O)N[C@@H](CCCCNC(=O)CC[C@H](NC(=O)CC[C@H](NC(=O)CC[C@H](NC(=O)CCCCCCCCCCCCCCCCC(=O)O)C(=O)O)C(=O)O)C(=O)O)C(=O)N[C@H](C(N)=O)[C@@H](C)O)C(C)C
As to B4, the IC50 was 0.2 nM with human GLP-1 receptor [1] and 3.9 nM with human glucagon receptor [2]. In addition, in the test with human GLP-1 receptor [3], the “EC50 GLP-1R” value was 0.008 nM. The “EC50 GlucR” value with human glucagon receptor [4] is 0.01 nM.
For H[Aib]QGTFTSDLSKYLDKRRAREFVAWLLNT-NH2 (not fully specified (residue 16)), the IC50 stood at 0.9 nM with human GLP-1 receptor [1] and 8.5 nM in the test with human glucagon receptor [2]. Further, in the test with human GLP-1 receptor [3], the “EC50 GLP-1R” value came to 0.0047 nM. Moreover, the “EC50 GlucR” value with human glucagon receptor [4] was 0.0399 nM.

B5: N^ε29-[(4S)-4-carboxy-4-[[(4S)-4-carboxy-4-[[2-[2-[2-[[2-[2-[2-[[(4S)-4-carboxy-4-(17-carboxyheptadecanoylamino)butanoyl]amino]ethoxy]ethoxy]acetyl]amino]ethoxy … (peptide)
peptide: H[Aib]QGTFTSDLSKYLDARRARDFVQWLLNK([γGlu-γGlu-AEEA-AEEA-γGlu-C18 diacid])-NH2
modifications: N-terminus assumed
SMILES: CC(C)C[C@H](NC(=O)[C@H](Cc1ccc(O)cc1)NC(=O)[C@H](CCCCN)NC(=O)[C@H](CO)NC(=O)[C@H](CC(C)C)NC(=O)[C@H](CC(=O)O)NC(=O)[C@H](CO)NC(=O)[C@@H](NC(=O)[C@H](Cc1ccccc1)NC(=O)[C@@H](NC(=O)CNC(=O)[C@H](CCC(N)=O)NC(=O)C(C)(C)NC(=O)[C@@H](N)Cc1c[nH]cn1)[C@@H](C)O)[C@@H](C)O)C(=O)N[C@@H](CC(=O)O)C(=O)N[C@@H](C)C(=O)N[C@@H](CCCNC(=N)N)C(=O)N[C@@H](CCCNC(=N)N)C(=O)N[C@@H](C)C(=O)N[C@@H](CCCNC(=N)N)C(=O)N[C@@H](CC(=O)O)C(=O)N[C@@H](Cc1ccccc1)C(=O)N[C@H](C(=O)N[C@@H](CCC(N)=O)C(=O)N[C@@H](Cc1c[nH]c2ccccc12)C(=O)N[C@@H](CC(C)C)C(=O)N[C@@H](CC(C)C)C(=O)N[C@@H](CC(N)=O)C(=O)N[C@@H](CCCCNC(=O)CC[C@H](NC(=O)CC[C@H](NC(=O)COCCOCCNC(=O)COCCOCCNC(=O)CC[C@H](NC(=O)CCCCCCCCCCCCCCCCC(=O)O)C(=O)O)C(=O)O)C(=O)O)C(N)=O)C(C)C
Regarding B5, the half-inhibitory concentration (IC50) with human GLP-1 receptor [1] amounted to 0.5 nM; with human glucagon receptor [2], 17 nM. In the test with human GLP-1 receptor [3], the “EC50 GLP-1R” value was determined as 0.006 nM. Further, in the test with human glucagon receptor [4], the “EC50 GlucR” value came to 0.044 nM.
